Reference: FireProtDB (doi:10.1006/jmbi.1995.0616)

B1: Subtilisin-chymotrypsin inhibitor-2A, P01053 (parent)
chain: MSSVEKKPEGVNTGAGDRHNLKTEWPELVGKSVEEAKKVILQDKPEAQIIVLPVGTIVTMEYRIDRVRLFVDKLDNIAQVPRVG

Variants of: B1
Settings: Hordeum vulgare; pH 6.25; 25 °C; GdnHCl; Fluorescence; MES 50 mM; reversible: yes; structure 2CI2; whole UniProt chain shown

Row | Variant | ddG of mutation (higher = less stable) [kcal/mol] | denaturant m value [kcal/mol/M] | denaturant midpoint (higher = more stable) [M] | unfolding free energy [kcal/mol]
1 | MSSVEKKPEGVNTGAGDRHNLKTEWPELVGKSVNEAKKVILQDKPEAQIIVLPVGTIVTMEYRIDRVRLFVDKLDNIAQVPRVG [E34N] | 0.28 | 2.01 | 3.64 | 7.32
2 | MSSVEKKPEGVNTGAGDRHNLKTEWPELVGKSVQEAKKVILQDKPEAQIIVLPVGTIVTMEYRIDRVRLFVDKLDNIAQVPRVG [E34Q] | 0.4 | 1.87 | 3.85 | 7.2
3 | MSSVEKKPEGVNTGAGDRHNLKTEWPELVGKSVEEAKKVILQDKPEAQIIVLPVGTIATMEYRIDRVRLLVDKLDNIAQVPRVG [V58A F70L] | 2.2 | 2.02 | 2.67 | 5.4
4 | MSSVEKKPEGVNTGAGDRHNLKTEWPELVGKSVEEAKKVILQDKPEAQIIVVPVGTIVTMEYRIDRVRLFVDKLDNIAQVPRVG [L52V] | 1.02 | 1.76 | 3.74 | 6.58
5 | MSSVEKKPEGVNTGAGDRHNLKTEWPELVGKSVEEAKKVILQDKPEAQIIVAPVGTIVTMEYRIDRVRLFVDKLDNIAQVPRVG [L52A] | 1.74 | 2.11 | 2.78 | 5.86
6 | MSSVEKKPEGVNTGAGDRHNLKTEWPELVGKSVEEAKKVILQDKPEAQIIVIPVGTIVTMEYRIDRVRLFVDKLDNIAQVPRVG [L52I] | 1.01 | 1.7 | 3.87 | 6.59
7 | MSSVEKKPEGVNTGAGDRHNLATEWPELVGKSVEEAKKVILQDKPEAQIIVLPVGTIVTMEYRIDRVRLFVDKLDNIAQVPRVG [K22A] | 1.04 | 1.77 | 3.72 | 6.56
8 | MSSVEKKPEGVNTGAGDRHNLKTEWPELVGKSVEEAKKVIGQDKPEAQIIVLPVGTIVTMEYRIDRVRLFVDKLDNIAQVPRVG [L41G] | 2.09 | 1.68 | 3.29 | 5.51
9 | MSSVEKKPEGVNTGAGDRHNLKTEWPELVGKSVEEAKKVIAQDKPEAQIIVLPVGTIVTMEYRIDRVRLFVDKLDNIAQVPRVG [L41A] | 1.21 | 1.93 | 3.32 | 6.39
10 | MSSVEKKPEGVNTGAGDRHNLKTEWPELVGKSVEEAKKVILQDKPEAQIIVLPVGAIVTMEYRIDRVRLFVDKLDNIAQVPRVG [T56A] | 1.42 | 1.5 | 4.12 | 6.18
11 | MSSVEKKPEGVNTGAGDRHNLKTEWPELVGKSVEEAKKVILQDKPEAQIIVLPVGVIVTMEYRIDRVRLFVDKLDNIAQVPRVG [T56V] | 1.57 | 1.67 | 3.61 | 6.03
12 | MSSVEKKPEGVNTGAGDRHNLKTEWPELVGKSVEEAKKVILQDKPEAQIIVLPVGSIVTMEYRIDRVRLFVDKLDNIAQVPRVG [T56S] | 0.98 | 1.66 | 3.99 | 6.62
13 | MSSVEKKPEGVNTGAGDRHNLKTEWPELVGKSVEEAKKVILQDKPEAMIIVLPVGTIVTLEYRIDRVRLFVDKLDNIAQVPRVG [Q48M M60L] | 0.18 | 1.78 | 4.16 | 7.42
14 | MSSVEKKPEGVNTGAGDRHNLKTEWPELVGKSVEEAKKVILQDKPAAQIIVLPVGTIVTMEYRIDRVRLFVDKLDNIAQVPRVG [E46A] | 0.78 | 1.78 | 3.83 | 6.82
15 | MSSVEKKPEGVNTGAGDRHNLKTEWPALVGKSVEEAKKVILQDKPEAQIIVLPVGTIVTMEYRIDRVRLFVDKLDNIAQVPRVG [E27A] | 1.03 | 1.75 | 3.76 | 6.57
16 | MSSVEKKPEGVNTGAGDRHNLKTEWPQLVGKSVEEAKKVILQDKPEAQIIVLPVGTIVTMEYRIDRVRLFVDKLDNIAQVPRVG [E27Q] | 0.57 | 1.91 | 3.68 | 7.03
17 | MSSVEKKPEGVNTGAGDRHNLKTEWPELVGKSVEEAKKVILGDKPEAQIIVLPVGTIVTMEYRIDRVRLFVDKLDNIAQVPRVG [Q42G] | 0.92 | 1.81 | 3.69 | 6.68
18 | MSSVEKKPEGVNTGAGDRHNLKTEWPELVGKSVEEAKKVILADKPEAQIIVLPVGTIVTMEYRIDRVRLFVDKLDNIAQVPRVG [Q42A] | 0.54 | 1.77 | 3.99 | 7.06
19 | MSSVEKKPEGVNTGAGDRHNLATEWPALVGKSVEEAKKVILQDKPEAQIIVLPVGTIVTMEYRIDRVRLFVDKLDNIAQVPRVG [K22A E27A] | 1.17 | 1.87 | 3.43 | 6.43
20 | MSSVEKKPEGVNTGAGDRHNLKTEWPELVGKSVEEAKKVILQDKPEAQIIVAPVGTIATMEYRIDRVRLFVDKLDNIAQVPRVG [L52A V58A] | 2.95 | 1.96 | 2.37 | 4.65
21 | MSSVEKKPEGVNTGAGDRHNLKTEWPELVGKSVEEAKKVILQDKPEAQIIVLAVGTIVTMEYRIDRVRLFVDKLDNIAQVPRVG [P53A] | 0.58 | 1.79 | 3.91 | 7.02
22 | MSSVEKKPEGVNTGAGDRHNLKTEWPELVGKAVAAAKKVILQDKPEAQIIVLPVGTIVTMEYRIDRVRLFVDKLDNIAQVPRVG [S32A E34A E35A] | 0.75 | 2.18 | 3.14 | 6.85
23 | MSSVEKKPEGVNTGAGDRHNLKTEWPELVGKSVEEAKAVILQDKPEAQIIVLPVGTIVTMEYRIDRVRLFVDKLDNIAQVPRVG [K38A] | 0.99 | 1.61 | 4.11 | 6.61
24 | MSSVEKKPEGVNTGAGDRHNLKTEWPELVGKSVEEAKGVILQDKPEAQIIVLPVGTIVTMEYRIDRVRLFVDKLDNIAQVPRVG [K38G] | 1.58 | 1.73 | 3.49 | 6.02
25 | MSSVEKKPEGVNTGAGDRHNLKTEWPELVGKSVEEAKKAILQDKPEAQIIVLPVGTIVTMEYRIDRVRLFVDKLDNIAQVPRVG [V39A] | 0.06 | 2.01 | 3.75 | 7.54
26 | MSSVEKKPEGVNTGAGDRHNLKTEWPELVGKSVEEAKKVILQDKPEAQIIVLPVGTAVTMEYRIDRVRLFVDKLDNIAQVPRVG [I57A] | 1.28 | 1.59 | 3.98 | 6.32
